Data taken from publication PMC5339710, “Single-molecule studies reveal reciprocating of WRN helicase core along ssDNA during DNA unwinding”.

T1: WRN helicase core (WRN512-1213) (Gallus gallus, UniProt D3KR65 512-1213)
T1 sequence: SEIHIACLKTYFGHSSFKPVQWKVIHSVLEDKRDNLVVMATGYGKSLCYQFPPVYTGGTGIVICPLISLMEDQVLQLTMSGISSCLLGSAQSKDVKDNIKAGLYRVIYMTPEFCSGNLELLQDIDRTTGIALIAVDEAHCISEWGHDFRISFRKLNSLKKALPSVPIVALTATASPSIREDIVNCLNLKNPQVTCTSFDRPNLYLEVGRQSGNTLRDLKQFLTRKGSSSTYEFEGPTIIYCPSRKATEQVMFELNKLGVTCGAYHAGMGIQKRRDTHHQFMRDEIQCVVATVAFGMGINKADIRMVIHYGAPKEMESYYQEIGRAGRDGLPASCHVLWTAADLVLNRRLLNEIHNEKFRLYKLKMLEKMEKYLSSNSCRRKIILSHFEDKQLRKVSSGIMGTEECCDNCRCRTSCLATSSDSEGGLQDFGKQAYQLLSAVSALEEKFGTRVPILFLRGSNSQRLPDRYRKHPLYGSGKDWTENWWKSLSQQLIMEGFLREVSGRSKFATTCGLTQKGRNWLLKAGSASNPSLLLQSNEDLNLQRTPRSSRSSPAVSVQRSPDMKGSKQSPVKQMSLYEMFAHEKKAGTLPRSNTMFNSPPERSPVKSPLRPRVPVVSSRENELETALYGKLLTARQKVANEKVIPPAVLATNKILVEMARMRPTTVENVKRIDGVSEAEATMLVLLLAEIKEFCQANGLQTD

B1: 16bp-FAM (dsDNA)
DNA 1: CTCTGCTCGACGGATT
DNA 2: AATCCGTCGAGCAGAG

Assays:
[1] = target: T1, WRN helicase core (WRN512-1213); assay: fluorescence polarization anisotropy; 5 mM Mg2+; no nucleotide stated; Hill coefficient 2; 20 mM Tris-HCl pH 8.0, 50 mM KCl, 5 mM MgCl2, 5 nM DNA, 25 C, 5 min equilibration; conditions: protein: recombinant; tags: 6xHis-SUMO at N-terminus, cleaved with Ulp; label: fluorescein (FAM), position by colour only; blunt
[2] = target: T1, WRN helicase core (WRN512-1213); assay: fluorescence polarization anisotropy; 0.2 mM ADP; 5 mM Mg2+; Hill coefficient 1; 20 mM Tris-HCl pH 8.0, 50 mM KCl, 5 mM MgCl2, 5 nM DNA, 25 C, 5 min equilibration; conditions: protein: recombinant; tags: 6xHis-SUMO at N-terminus, cleaved with Ulp; label: fluorescein (FAM), position by colour only; single strand
[3] = target: T1, WRN helicase core (WRN512-1213); assay: fluorescence polarization anisotropy; 0.2 mM ATPgS; 5 mM Mg2+; Hill coefficient 1; 20 mM Tris-HCl pH 8.0, 50 mM KCl, 5 mM MgCl2, 5 nM DNA, 25 C, 5 min equilibration; conditions: protein: recombinant; tags: 6xHis-SUMO at N-terminus, cleaved with Ulp; label: fluorescein (FAM), position by colour only; single strand

Binder	Kd [1] [nM]	Kd [2] [nM]	Kd [3] [nM]
B1	32.2 ± 2.8		
CTCTGCTCGACGGATT (ssDNA) [16nt-FAM]		141 ± 10.5	76.6 ± 4.2
